Measurements: the Human Domainome abundance scans (Beltran et al. 2025)
± gives the uncertainty stated by the source.

B1: Formin-binding protein 4, residues 593 to 636; numbered along this chain, Q8N3X1 (parent)
chain: EINATPKGWSCHWDRDHRRYFYVNEQSGESQWEFPDGEEEEEES

Variants of: B1
Experiment: abundance fitness (aPCA) (normalised: wild type 0, dead -1); higher = more abundant; growth selection in yeast, the domain comes from the species named
Details: Homo sapiens

Variant	abundance fitness
G8A	-0.707 ± 0.08
G8M	-0.605 ± 0.14
G8S	-0.623 ± 0.13
G8E	-0.438 ± 0.18
G8Q	-0.612 ± 0.14
G8I	-0.496 ± 0.14
G8K	-0.408 ± 0.2
G8V	-0.664 ± 0.14
G8R	-0.621 ± 0.11
G8C	-0.471 ± 0.16
F34R	0.081 ± 0.057
F34W	-0.13 ± 0.07
F34V	-0.044 ± 0.07
F34P	0.071 ± 0.076
F34Y	-0.084 ± 0.12
F34E	-0.074 ± 0.088
F34G	-0.392 ± 0.065
F34N	-0.635 ± 0.13
F34M	-0.07 ± 0.096
F34A	-0.059 ± 0.072
R18A	0.012 ± 0.071
R18T	-0.344 ± 0.093
R18L	0.016 ± 0.089
D16T	-0.064 ± 0.14

Variant	abundance fitness
D16Q	-0.075 ± 0.12
D16W	-0.218 ± 0.069
D16C	-0.225 ± 0.089
D16G	-0.239 ± 0.061
D16V	-0.253 ± 0.08
D16F	-0.362 ± 0.17
D16H	-0.168 ± 0.088
D16R	-0.274 ± 0.059
D16L	-0.447 ± 0.069
D16A	-0.234 ± 0.063
I2E	-0.173 ± 0.3
I2Y	-0.02 ± 0.25
I2R	-0.006 ± 0.091
P35G	-0.611 ± 0.062
P35W	-0.782 ± 0.094
P35Y	-0.995 ± 0.18
P35A	-0.455 ± 0.066
P35T	-0.753 ± 0.099
P35D	-0.712 ± 0.092
P35R	-0.661 ± 0.065
P35M	-0.734 ± 0.13
V23F	-0.367 ± 0.14
V23K	0.074 ± 0.11
V23A	-0.347 ± 0.071

Variant	abundance fitness
V23Q	-0.179 ± 0.093
V23M	-0.331 ± 0.14
V23T	0.324 ± 0.21
V23D	-0.513 ± 0.14
Y22S	-0.322 ± 0.087
Y22W	0.035 ± 0.08
Y22A	-0.572 ± 0.079
Y22N	-0.092 ± 0.29
Y22M	-0.492 ± 0.16
Y22E	-0.482 ± 0.2
Y22V	-0.692 ± 0.075
S44M	-0.536 ± 0.17
S44G	0.083 ± 0.098
S44Q	0.247 ± 0.19
S44T	-0.084 ± 0.33
S44H	-0.013 ± 0.2
Q26V	-0.19 ± 0.099
Q26L	-0.137 ± 0.083
Q26K	0.18 ± 0.11
Q26C	0.133 ± 0.25
R15Q	0.139 ± 0.16
R15W	-0.315 ± 0.1
R15P	-0.118 ± 0.1
R15E	0.123 ± 0.07

Variant	abundance fitness
R15G	-0.032 ± 0.061
R15D	-0.007 ± 0.15
R15C	-0.204 ± 0.088
E25G	-0.316 ± 0.073
E25S	-0.365 ± 0.14
E25R	-0.175 ± 0.067
E25C	-0.355 ± 0.29
E25M	-0.253 ± 0.12
E25A	-0.179 ± 0.078
E25Q	0.006 ± 0.14
E25H	-0.251 ± 0.12
E25T	-0.119 ± 0.13
E38A	0.018 ± 0.066
E38H	-0.2 ± 0.12
E38W	-0.314 ± 0.13
E38P	0.056 ± 0.07
E38S	0.045 ± 0.07
E38Y	-0.316 ± 0.39
E38R	-0.023 ± 0.059
E38F	-0.217 ± 0.12
E38C	-0.047 ± 0.071
E38Q	0.061 ± 0.077
P6S	-0.412 ± 0.39
P6G	-0.587 ± 0.24

Variant	abundance fitness
S27Q	-0.613 ± 0.12
S27D	-0.551 ± 0.14
S27F	-0.988 ± 0.17
S27T	0.022 ± 0.072
S27W	-1.52 ± 0.45
S27P	-1.02 ± 0.19
S27K	-0.485 ± 0.18
S27N	-0.453 ± 0.47
S27M	-0.641 ± 0.12
S27R	-0.422 ± 0.09
R19Y	-0.864 ± 0.21
R19M	-0.21 ± 0.11
R19L	-0.423 ± 0.12
R19N	-0.506 ± 0.25
R19S	-0.391 ± 0.14
R19E	-0.406 ± 0.11
K7S	-0.214 ± 0.14
K7A	-0.079 ± 0.093
K7F	-0.303 ± 0.1
K7D	-0.123 ± 0.4
W9C	-0.56 ± 0.094
W9K	-0.619 ± 0.2
W9A	-0.568 ± 0.099
W9M	-0.591 ± 0.12

Variant	abundance fitness
W9D	-0.742 ± 0.18
W9P	-0.512 ± 0.09
W9Q	-0.498 ± 0.14
W13G	-0.544 ± 0.067
W13P	-0.404 ± 0.074
W13A	-0.571 ± 0.068
W13H	-0.499 ± 0.1
W13F	-0.095 ± 0.18
W13L	-0.46 ± 0.083
W13K	-0.545 ± 0.16
W13S	-0.662 ± 0.079
W13M	-0.542 ± 0.096
S10G	-0.528 ± 0.095
S10Q	-0.183 ± 0.15
S10M	-0.389 ± 0.15
S10Y	-0.521 ± 0.43
S10V	-0.186 ± 0.1
S10W	-1.06 ± 0.12
S10T	-0.288 ± 0.24
S10K	-0.212 ± 0.15
S10E	-0.381 ± 0.11
S10D	-0.465 ± 0.11
D36A	-0.04 ± 0.067
D36P	-0.025 ± 0.071

Variant	abundance fitness
D36V	-0.044 ± 0.064
D36T	-0.137 ± 0.081
D36W	-0.262 ± 0.073
D36L	-0.176 ± 0.065
D36K	-0.076 ± 0.12
D36M	-0.09 ± 0.079
D36S	0.003 ± 0.068
D36I	-0.07 ± 0.13
D36C	-0.097 ± 0.095
D36H	-0.087 ± 0.083
E1W	-0.061 ± 0.41
E1K	0.036 ± 0.12
E1A	-0.14 ± 0.15
E1V	-0.499 ± 0.16
Y20Q	-0.285 ± 0.16
Y20T	-0.277 ± 0.11
Y20G	-0.605 ± 0.063
Y20K	-0.319 ± 0.28
Y20A	-0.3 ± 0.065
Y20D	-0.64 ± 0.13
Y20N	-0.059 ± 0.25
Y20M	-0.205 ± 0.12
S30L	-0.03 ± 0.1
S30Q	0.15 ± 0.12

Variant	abundance fitness
S30M	0.04 ± 0.17
S30G	-0.023 ± 0.078
S30I	0.082 ± 0.13
S30E	-0.04 ± 0.084
S30F	-0.066 ± 0.36
Q31H	-0.47 ± 0.087
Q31L	-0.383 ± 0.07
Q31A	-0.377 ± 0.065
Q31I	-0.472 ± 0.1
Q31T	-0.115 ± 0.078
Q31F	-0.416 ± 0.082
Q31K	-0.32 ± 0.11
T5K	0.67 ± 0.33
T5D	-0.463 ± 0.3
T5M	-0.054 ± 0.15
T5R	-0.345 ± 0.13
T5C	0.052 ± 0.15
T5G	-0.393 ± 0.097
T5L	0.213 ± 0.084
T5V	0.065 ± 0.17
T5H	-0.534 ± 0.36
H17K	0.207 ± 0.1
H17M	-0.235 ± 0.19
H17F	-0.025 ± 0.35

Variant	abundance fitness
H17R	0.046 ± 0.058
H17V	-0.208 ± 0.086
H17L	0.007 ± 0.078
H17Y	-0.156 ± 0.095
H17P	-1 ± 0.12
D14Y	-1.24 ± 0.15
D14C	-0.341 ± 0.13
D14A	-0.514 ± 0.072
D14R	-0.843 ± 0.076
D14K	-0.928 ± 0.14
D14E	-0.685 ± 0.13
D14F	-0.75 ± 0.47
D14Q	-0.667 ± 0.15
D14G	-0.963 ± 0.068
D14P	-1.12 ± 0.29
D14V	-0.811 ± 0.079
D14W	-1.4 ± 0.11
E42M	0.038 ± 0.11
E42I	-0.409 ± 0.12
E42C	-0.023 ± 0.064
E42L	-0.073 ± 0.069
E42W	-0.283 ± 0.087
E42H	-0.009 ± 0.1
E42V	-0.005 ± 0.07

Variant	abundance fitness
E42A	0.04 ± 0.061
E42P	0.004 ± 0.064
E42G	0.122 ± 0.061
E42T	0.026 ± 0.073
E42R	0.01 ± 0.057
E42D	0.038 ± 0.084
E42K	0.022 ± 0.11
E41N	-0.109 ± 0.083
E41F	-0.079 ± 0.11
E41S	-0.139 ± 0.092
E41P	0.031 ± 0.078
H12V	-0.21 ± 0.074
H12C	-0.302 ± 0.14
H12T	-0.407 ± 0.26
H12D	-0.646 ± 0.14
H12G	-0.379 ± 0.075
H12S	-0.453 ± 0.1
H12E	-0.049 ± 0.13
H12P	-0.822 ± 0.15
E33M	-0.341 ± 0.09
E33Q	-0.009 ± 0.085
E33G	-0.168 ± 0.067
E33V	-0.456 ± 0.068
E33D	-0.237 ± 0.15

Variant	abundance fitness
E33H	-0.408 ± 0.17
E33C	-0.355 ± 0.25
E33N	0.031 ± 0.094
E33Y	-0.892 ± 0.24
E33A	-0.064 ± 0.062
E33T	-0.078 ± 0.08
W32M	-0.243 ± 0.098
W32D	-0.364 ± 0.14
W32E	-0.273 ± 0.086
W32C	-0.305 ± 0.11
W32A	-0.226 ± 0.079
W32R	-0.324 ± 0.064
N3V	-0.093 ± 0.11
N3H	-0.128 ± 0.15
N3Q	0.041 ± 0.084
N3G	-0.098 ± 0.071
N3C	-0.304 ± 0.2
N3R	-0.169 ± 0.085
N3M	0.323 ± 0.24
A4N	0.2 ± 0.12
A4Q	-0.122 ± 0.2
A4R	-0.01 ± 0.07
A4L	0.019 ± 0.1
A4K	-0.008 ± 0.17

Variant	abundance fitness
F21R	0.187 ± 0.06
F21C	0.058 ± 0.087
F21P	-0.303 ± 0.093
F21W	-0.275 ± 0.086
F21M	-0.048 ± 0.16
F21G	-0.368 ± 0.058
N24A	-0.62 ± 0.068
N24T	-0.63 ± 0.14
N24F	-0.687 ± 0.31
N24I	-1.14 ± 0.15
N24R	-0.359 ± 0.058
N24C	-0.226 ± 0.18
N24E	-0.335 ± 0.082
N24Y	-0.998 ± 0.16
E43W	-0.197 ± 0.093
E43Q	-0.433 ± 0.3
E43G	0.021 ± 0.082
E43S	0.041 ± 0.078
E43T	0.008 ± 0.089
E43P	0.044 ± 0.083
E43F	0.248 ± 0.3
E43V	0.046 ± 0.079
E43N	-0.08 ± 0.15
E43K	0.021 ± 0.092

Variant	abundance fitness
E40R	-0.035 ± 0.058
E40A	0.038 ± 0.067
E40D	-0.158 ± 0.13
E40P	-0.011 ± 0.061
E40T	0.151 ± 0.1
E40W	-0.101 ± 0.078
E40F	-0.144 ± 0.15
E29N	-0.421 ± 0.31
E29V	-0.126 ± 0.079
E29M	-0.058 ± 0.096
E29I	-0.062 ± 0.13
E29P	-0.883 ± 0.12
E29H	-0.016 ± 0.094
E29W	-0.559 ± 0.093
E29D	-0.388 ± 0.26
E29C	-0.575 ± 0.18
G28V	-0.932 ± 0.085
G28R	-0.438 ± 0.079
G28Q	-0.337 ± 0.11
G28A	-0.567 ± 0.076
G28C	-0.61 ± 0.12
G28K	-0.199 ± 0.2
G28F	-1.22 ± 0.23
G28T	-0.728 ± 0.079

Variant	abundance fitness
G28D	-0.682 ± 0.11
G37I	-0.232 ± 0.14
G37P	-0.034 ± 0.097
G37H	-0.021 ± 0.12
G37A	-0.032 ± 0.067
G37M	-0.216 ± 0.13
G37T	-0.026 ± 0.081
G37L	-0.151 ± 0.071
G37R	-0.222 ± 0.068
G37V	-0.007 ± 0.068
E39K	0.048 ± 0.075
E39W	-0.191 ± 0.074
E39F	-0.155 ± 0.11
E39D	-0.128 ± 0.14
E39C	0.048 ± 0.1
E39Q	0.074 ± 0.078
E39N	0.052 ± 0.096
E39V	0.008 ± 0.059
E39S	-0.056 ± 0.072
E39P	0.041 ± 0.069
E39L	0.075 ± 0.067
E39M	-0.109 ± 0.083
